Measurements taken from patent US20070072177A1 (CRUCELL HOLLAND B V, published 2007).

Assays:
[1] = biological target: purified rabies virus glycoprotein (rabies virus ERA strain) (rabies virus strain ERA, UniProt P03524 20-524); experiment: phage ELISA on coated purified G protein (ERA), anti-M13-HRP
[2] = biological target: T1, glycoprotein of rabies virus strain CVS-11 (rabies virus strain CVS-11, UniProt O92284 20-524); experiment: cell-based or functional assay
T1 sequence: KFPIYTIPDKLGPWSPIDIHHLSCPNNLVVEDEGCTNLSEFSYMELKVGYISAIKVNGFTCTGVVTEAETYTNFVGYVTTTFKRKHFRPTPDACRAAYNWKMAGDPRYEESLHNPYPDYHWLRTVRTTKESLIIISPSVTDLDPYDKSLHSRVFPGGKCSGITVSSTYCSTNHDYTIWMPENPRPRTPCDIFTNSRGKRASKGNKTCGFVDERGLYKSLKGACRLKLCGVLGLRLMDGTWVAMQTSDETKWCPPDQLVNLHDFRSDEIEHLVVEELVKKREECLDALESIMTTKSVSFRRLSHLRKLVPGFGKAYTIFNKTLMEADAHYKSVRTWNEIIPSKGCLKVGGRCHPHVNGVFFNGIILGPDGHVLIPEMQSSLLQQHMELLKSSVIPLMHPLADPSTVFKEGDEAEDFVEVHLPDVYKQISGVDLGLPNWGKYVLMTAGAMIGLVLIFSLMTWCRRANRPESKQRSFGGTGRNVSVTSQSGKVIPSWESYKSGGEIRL

B1: SC04-103 (scFv)
scFv: AMAQVQLQESGGGVVQPGRSLRLSCAASGFTFSSYGMHWVRQAPGKGLEWVAVILYDGSDKYYADSVKGRFTISRDNSKNTLYLQMNSLRAEDTAVYYCAKVAVAGESFDSWGRGTLVTVSSGTGGSGGTGSGTGGSTDIQLTQSPSSVSASVGDRVTITCRASQGISSWLAWYQQKPGKAPRSLIYDASSLQSGVPSRFSGSGSGTDFTLTISSLQPEDFATYYCQQADSFPITFGQGTRLEIKRAAA
OD 492 nm [1]: 0.606 OD 492 nm | Potency (IU/ml) [2]: 0.3 IU/ml

B2: SC04-001 (scFv)
scFv: AMAEVQLVESGGGVVRPGGSLRLSCAASGFTFDDYGMSWVRQAPGKGLEWVSGINWNGGSTGYADSVKGRFTISRDNAKNSLYLQMNSLRAEDTAVYYCAKGLYGELFDYWGQGTLVTVSRGGGGSGGGGSGGGGSSELTQDPAVSVALGQTVRITCQGDSLRSYYASWYQQKPGQAPVLVIYGKNNRPSGIPDRFSGSSSGNTASLTITGAQAEDEADYYCNSRDSSGNHVVFGGGTKLTVLGAAA
OD 492 nm [1]: 0.828 OD 492 nm | Potency (IU/ml) [2]: 1.3 IU/ml

B3: SC04-073 (scFv)
scFv: AMAQVQLVQSGGGVAQPGRSLRLSCAASGFTFSSYGMHWVRQAPGKGLEWVADISYDGSNKYYADSVKGRFTISRDNSKNTLYLQMNSLRAEDTAVYYCAKDGLDLTGTIQPFGYWGQGTLVTVSSGTGGSGGTGSGTGGSTDIQLTQSPSFLSASVGDRVTITCRASHSISSWLAWYQQKPGKAPKLLIYKASSLESGVPSRFSGSGSGTDFTLTISSLQPEDFATYYCLQDYNYPRTFGQGTKLEIKRAAA
OD 492 nm [1]: 0.657 OD 492 nm | Potency (IU/ml) [2]: 3 IU/ml

B4: SC04-040 (scFv)
scFv: AMAQVQLVQSGGGVVQPGRSLRLSCAASGFTFGSYGMHWVRQAPGKGLEWVATIFYDGSYKDYADSVKGRFTISRDNSKNTLYLQMNSLRAEDTAVYYCAKGSKVGDFDYWGQGTLVTVSSGTGGSGGTGSGTGGSTQPVLTQPPSVSVAPGQTARISCGGDNIGTNTVQWYQQKPGQAPVLVVYDDSDRPSGIPERFSGSNSGDTATLTISRVEAGDEADYYCQVWDDSSDLVVFGGGTKVTVLGAAA
OD 492 nm [1]: 0.74 OD 492 nm | Potency (IU/ml) [2]: 0.3 IU/ml

B5: SC04-060 (scFv)
scFv: AMAQVQLVESGPGLVKASETLSLTCTVSDGSISSFYWSWIRQPPGKGLEWVGEIQDTGRTNYNPSLKSRVTISLDTSKNQFSLTLSSVTAADTAVYYCAREKEKYSDRSGYSYYYYYMDVWGKGTTVTVSSGTGGSGGTGSGTGGSTDIQMTQSPSSLSASVGDRVTITCRASQGISTYLNWYQQKPGKAPNLLIYGASNLQSGVPSRFSGSESGTDFTLTISSLQPEDFATYYCQQSFTTPRTFGQGTKLEIKRAAA
OD 492 nm [1]: 0.923 OD 492 nm | Potency (IU/ml) [2]: 0.2 IU/ml

B6: SC04-164 (scFv)
scFv: AMAEVQLVESGGGVVQPGRSLRLSCAASGFTFSSYGMHWVRQAPGKGLEWVAVISYDGSSKYYADSVKGRFTISRDNSKNTLYLQMNSLRAEDTAVYYCAKGSVLGDAFDIWGQGTMVTVSSGTGGSGGTGSGTGGSTDIQLTQSPSSVSASVGDRVTITCRASQGISSWLAWYQQKPGKAPKLLIYAASSLQSGVPSRFSGSGSGTDFTLTISSLQPEDFATYYCQQANSFPLTFGGGTKVDIKRAAA
OD 492 nm [1]: 0.547 OD 492 nm | Potency (IU/ml) [2]: 0.3 IU/ml

B7: SC04-038 (scFv)
scFv: AMAQVQLVQSGGGVVQPGRSLRLSCAASGFTFSSYGMHWVRQAPGKGLEWVAVISYDGSSKYYADSVKGRFTISRDNSKNTLYLQMNSLRAEDTAVYYCAKGSVLGDAFDIWGQGTMVTVSSGTGGSGGTGSGTGGSTDIQLTQSPSSVSASVGDRVTITCRASQGISGWLAWYQQKPEKAPKLLIYAASSLQRGVPSRFSGSGSGTDFTLTISSLQPEDFATYYCQQANSFPPTFGQGTRLEIKRAAA
OD 492 nm [1]: 0.653 OD 492 nm | Potency (IU/ml) [2]: 2 IU/ml

B8: SC04-031 (scFv)
scFv: AMAEVQLVESGGGVVQPGRSLRLSCAASGFTFSSYGMHWVRQAPGKGLEWVAVISYDGSNKYYADSVKGRFTISRDNSKNTLYLQMNSLRAEDTAVYYCAKGSVLGDAFDIWGQGTMVTVSSGTGGSGGTGSGTGGSTDIQMTQSPSFVSASVGDRVTITCRASQGISSWLAWYQQKPGKAPKLLIYAASSLQSGVPSRFSGSGSGTDFTLTISSLQPEDFATYYCQQANSFPLTFGGGTKVEIKRAAA
OD 492 nm [1]: 0.721 OD 492 nm | Potency (IU/ml) [2]: 0.7 IU/ml

B9: SC04-021 (scFv)
scFv: AMAEVQLVESGGGVVQPGRSLRLSCAASGFTFSSYGMHWVRQAPGKGLEWVAVISYDGSSKYYADSVKGRFTISRDNSKNTLYLQMNSLRAEDTAVYYCAKGSVLGDAFDIWGQGTMVTVSSGTGGSGGTGSGTGGSTDIQMTQSPFSLSASVGDRVTITCRASQGIGSSLAWYQQKPGKAPKLLIYAASSLQSGVPSRFSGSGSGTDFTLTISSLQPEDFATYFCLQHHDYPLTFGGGTKLEIKRAAA
OD 492 nm [1]: 0.278 OD 492 nm | Potency (IU/ml) [2]: 1.3 IU/ml

B10: scFv SO57 (scFv)
scFv: AMAQVQLVQSGAEVKKPGSSVKVSCKASGGTFNRYTVNWVRQAPGQGLEWMGGIIPIFGTANYAQRFQGRLTITADESTSTAYMELSSLRSDDTAVYFCARENLDNSGTYYYFSGWFDPWGQGTLVTVSSGTGGSGGTGSGTGGSTQSALTQPRSVSGSPGQSVTISCTGTSSDIGGYNFVSWYQQHPGKAPKLMIYDATKRPSGVPDRFSGSKSGNTASLTISGLQAEDEADYYCCSYAGDYTPGVVFGGGTKLTVLGAAA
OD 492 nm [1]: 0.65 OD 492 nm

B11: SC04-008 (scFv)
scFv: AMAQVTLKESGPTLVKPTQTLTLTCTFSGFSLSTSGVGVGWIRQPPGKALEWLARIDWDDDKYYSTSLKTRLTISKDTSKNQVVLTMTNMDPVDTATYYCARMGFTGTYFDYWGQGTLVTVSSGTGGSGGTGSGTGGSTQAVLTQPSSVSVAPGETASVTCGGDNIGSKSVHWYQKKPGQAPVLVVFDDSDRPSGIPERFSGSTSGNTAALTISRVEAGDEADYYCQVWDSSNDHLYVFGPGTQLTVLSAAA
OD 492 nm [1]: 0.582 OD 492 nm | Potency (IU/ml) [2]: > 54 IU/ml

B12: SC04-026 (scFv)
scFv: AMAEVQLVESGAEVKKPGESLKISCKGSGYNFPYSWIAWVRQMPGKGLEWMGIIFPGDSDTRYSPPFQGQVTISADNSKSTAYLQWSSLKASDTAMYYCARTSNWNYLDRFDPWGQGTLVTVSSGTGGSGGTGSGTGGSTDVVMTQSPLSLPVTPGEPASISCRSSQSLLHSNGHDYLDWYVQKPGQSPQPLIYLGSDRASGVPDRFSGSGSGTHFTLNISRVEAEDVGVYYCMQSLQTPWTFGQGTKLEIKRAAA
OD 492 nm [1]: 0.212 OD 492 nm | Potency (IU/ml) [2]: 0.3 IU/ml

B13: SC04-098 (scFv)
scFv: AMAEVQLVQSGGGAVQPGRSLRLSCAASGFTFSSYGMHWVRQAPGKGLEWVAVILYDGSDKFYADSVKGRFTISRDNSKNTLYLQMNSLRAEDTAVYYCAKVAVAGTHFDYWGQGTLVTVSSGTGGSGGTGSGTGGSTDIQMTQSPSSLSASVGDRVTITCRASQGIRNDLGWYQQKPGKAPKLLIYAASSLQSGVPSRFSGSGSGTDFTLTISSLQPEDFATYYCQQLNSYPPTFGGGTKVEIKRAAA
OD 492 nm [1]: 0.798 OD 492 nm | Potency (IU/ml) [2]: 9 IU/ml

B14: SC04-018 (scFv)
scFv: AMAEVQLVESGPGLVRPSGTLSLTCAVSGGSISSSNWWSWVRQPPGKGLEWIGEIYHSGSTNYNPSLKSRVTISVDKSKNQFSLKLSSVTAADTAVYYCARVSVTTGAFNIWGQGTMVTVSSGTGGSGGTGSGTGGSTQPVLTQPLSASGTPGQRVTISCSGDTSNIGSNTVHWYQRLPGTAPKLLIHNNNQRPSGVPDRFSGAKSGTSASLAISGLQSEDEADYFCAAWDDNLNGYVFGTGTKVTVLGAAA
OD 492 nm [1]: 0.247 OD 492 nm | Potency (IU/ml) [2]: 0.1 IU/ml

B15: SC04-097 (scFv)
scFv: AMAEVQLVQSGGHLVQPGGSLRLSCAASGFTFSSYAMSWVRQAPGKGLEWVSLIIGSGRSTYYADSVKGRFTISRDNSKNTLYLQMNSLRAEDTAVYYCAKTASNLGRGGMDVWGQGTTVTVSSGTGGSGGTGSGTGGSTDIQLTQSPSSLSASVGDRVTITCRASQGISSHLAWYQQKPGKAPKLLIYAASSLQSGVPSRFSGSGSGTEFTLTISSLQPEDFATYYCQQFNSYPITFGQGTRLEIKRAAA
OD 492 nm [1]: 0.835 OD 492 nm | Potency (IU/ml) [2]: 0.2 IU/ml

B16: SC04-104 (scFv)
scFv: AMAQVQLQESGGGVVQPGRSLRLSCAASGFTFSSYGMHWVRQAPGKGLEWVATISYDGNVKDYADSVKGRFTISRDNSKNTLYLQMNSLRTEDTAVYYCAKIVVVTALDAFDIWGQGTMVTVSSGTGGSGGTGSGTGGSTDIQLTQSPSTLSASVGDRVTITCRASQILGHWLPLSWYQQKPGKAPKLLISKASSLESGVPPRFSGSGSGSDFTLTISSLQPDDFATYYCLQYHEYPLTFGGGTKLEIKRAAA
OD 492 nm [1]: 0.566 OD 492 nm | Potency (IU/ml) [2]: 1 IU/ml

B17: SC04-010 (scFv)
scFv: AMAQVQLVQSGGDLVQPGRSLRLSCAASGFTFSSYGMHWVRQAPGKGLEWVADISYDGSNKYYADSVKGRFTISRDNSKNTLYLQMNSLRAEDTAVYYCAKDGLDLTGTIQPFGYWGQGTLVTVSSGTGGSGGTGSGTGGSTDIQMTQSPSSLSASVGDRVTITCRASQGIRNDLGWYQQKPGKAPKLLIYAASSLQSGVPSRFSGSGSGTDFTLTISSLQPEDFATYYCLQDYNYPRTFGQGTKVEIKRAAA
OD 492 nm [1]: 0.915 OD 492 nm | Potency (IU/ml) [2]: 4 IU/ml
